Measured values reported in patent publication US20260184775A1 (Chugai, published 2026).

How the values were obtained:
[1] = target: T1, mouse cell surface latent TGF-beta 1 (mouse, UniProt P04202 30-390); assay: FACS on Ba/F3 cells, PE-labelled secondary antibody, MFI
T1 construct: Endogenous latent TGF-beta 1 (forming LLC) on Ba/F3 cells, and the latent TGF-beta 1 of mouse PBMC in the co-culture assay; also called cell surface mouse latent TGF-beta 1; latent TGF-beta 1 on Ba/F3 cells
Experimental: (§1) Anti-latent TGF-beta 1 antibodies were incubated with each cell line for 30 minutes at 4 degrees C. and washed with FACS buffer (2% FBS, 2 mM EDTA in PBS). Anti-KLH antibody (IC17) was used for a negative control antibody. Goat F(ab′)2 anti-Human IgG, Mouse ads-PE (Southern Biotech, Cat. 2043-09) or Goat F(ab′)2 anti-Mouse IgG(H+L), Human Ads-PE (Southern Biotech, Cat. 1032-09) was then added and incubated for 30 minutes at 4 degrees C. and washed with FACS buffer. Data acquisition was performed on an FACS Verse (Becton Dickinson), followed by analysis using FlowJo software (Tree Star) and GraphPad Prism software (GraphPad).

[2] = target: T2, human cell surface latent TGF-beta 1 (human, UniProt P01137 30-390); assay: FACS on FreeStyle 293-F cells, PE-labelled secondary antibody, MFI
T2 construct: also called cell surface human latent TGF-beta 1
T2 sequence (P01137 30-390): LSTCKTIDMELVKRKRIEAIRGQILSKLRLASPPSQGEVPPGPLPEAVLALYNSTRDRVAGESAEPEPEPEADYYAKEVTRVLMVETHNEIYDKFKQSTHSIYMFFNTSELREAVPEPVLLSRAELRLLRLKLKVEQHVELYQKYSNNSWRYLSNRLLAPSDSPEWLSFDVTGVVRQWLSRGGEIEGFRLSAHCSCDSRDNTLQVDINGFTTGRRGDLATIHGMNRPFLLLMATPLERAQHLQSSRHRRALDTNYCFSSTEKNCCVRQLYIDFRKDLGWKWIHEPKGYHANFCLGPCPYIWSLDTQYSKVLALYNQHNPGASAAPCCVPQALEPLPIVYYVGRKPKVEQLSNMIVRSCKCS
Experimental: as §1

[3] = target: T3, recombinant mouse latent TGF-beta 1 (Flag-tagged mouse latent TGF-beta 1) (mouse, UniProt P04202 34-390); assay: SPR, Biacore T200, 37 C, pH 7.4; antibody captured by anti-human Fc, latent TGF-beta 1 at 12.5 to 200 nM as analyte; 1:1 model
T3 construct: also called mouse recombinant latent TGF-beta 1
T3 sequence (P04202 other isoform, or with tags, fused parts or gaps limits assumed): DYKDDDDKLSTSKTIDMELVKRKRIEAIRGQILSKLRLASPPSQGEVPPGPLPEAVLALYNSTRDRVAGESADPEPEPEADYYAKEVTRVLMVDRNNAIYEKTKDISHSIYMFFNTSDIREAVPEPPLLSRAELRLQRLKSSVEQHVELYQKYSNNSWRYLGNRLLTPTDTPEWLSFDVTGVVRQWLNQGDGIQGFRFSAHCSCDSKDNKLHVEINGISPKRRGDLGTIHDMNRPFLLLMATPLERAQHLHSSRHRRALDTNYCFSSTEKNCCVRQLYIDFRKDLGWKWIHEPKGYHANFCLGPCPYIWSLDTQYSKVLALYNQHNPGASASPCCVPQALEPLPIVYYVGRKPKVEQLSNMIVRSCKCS
Experimental: (§2) The affinities of anti-latent TGF-beta 1 antibodies binding to human or mouse latent TGF-beta 1 at pH 7.4 were determined at 37 degrees C. using Biacore T200 instrument (GE Healthcare). Anti-human Fc (GE Healthcare) was immobilized onto all flow cells of a CM4 sensor chip using an amine coupling kit (GE Healthcare). All antibodies and analytes were prepared in ACES pH 7.4 containing 20 mM ACES, 150 mM NaCl, 1.2 mM CaCl₂), 0.05% Tween 20, 0.005% NaN3. Each antibody was captured onto the sensor surface by anti-human Fc. Antibody capture levels were aimed at 300 resonance unit (RU). For TBA865 and TBA873, recombinant human or mouse latent TGF-beta 1 was injected at 12.5 to 200 nM prepared by two-fold serial dilution, followed by dissociation. For TBS139 and TBS182, recombinant human or mouse latent TGF-beta 1 was injected at 3.125 to 50 nM prepared by two-fold serial dilution, followed by dissociation. The sensor surface was regenerated each cycle with 3M MgCl2.

[4] = target: T4, recombinant human latent TGF-beta 1 (Flag-tagged human latent TGF-beta 1) (human, UniProt P01137 34-390); assay: as above
T4 construct: Latent form: LAP plus mature TGF-beta 1; also called human recombinant latent TGF-beta 1; SLC
T4 sequence (P01137 other isoform, or with tags, fused parts or gaps limits assumed): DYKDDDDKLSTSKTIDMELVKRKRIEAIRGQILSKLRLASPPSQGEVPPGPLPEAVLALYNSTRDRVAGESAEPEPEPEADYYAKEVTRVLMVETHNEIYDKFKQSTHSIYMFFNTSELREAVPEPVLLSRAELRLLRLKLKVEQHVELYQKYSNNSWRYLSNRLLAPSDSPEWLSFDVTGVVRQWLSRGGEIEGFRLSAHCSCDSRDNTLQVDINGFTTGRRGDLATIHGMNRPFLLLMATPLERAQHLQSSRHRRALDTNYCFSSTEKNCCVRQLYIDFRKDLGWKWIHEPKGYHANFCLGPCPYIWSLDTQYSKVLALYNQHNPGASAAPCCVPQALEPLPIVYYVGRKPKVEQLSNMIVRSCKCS
Experimental: as §2

mouse mature TGF-beta 1 = target: T5, mouse mature TGF-beta 1 (mouse, UniProt P04202 279-390); assay: ELISA on plate-coated mouse mature TGF-beta 1, detection with anti-human IgG-HRP
T5 construct: mature; also the active TGF-beta 1 released in the mouse PBMC co-culture assay
T5 sequence (P04202 279-390 limits assumed): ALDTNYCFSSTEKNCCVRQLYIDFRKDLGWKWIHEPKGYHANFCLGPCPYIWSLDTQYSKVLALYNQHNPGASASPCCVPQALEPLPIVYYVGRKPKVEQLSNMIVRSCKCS
Experimental: 384-well plate was coated with mouse mature TGF-beta 1 for overnight at 4 degrees C. After four times washing with TBS-T, the plate was blocked with blocking buffer (1×TBS/tween20+0.5% BSA+1× Block ace) for 2 hours at room temperature. After four times washing with TBS-T, antibody solution was added into the plate and incubated for 2 hours at room temperature. After four times washing with TBS-T, a diluted secondary antibody (goat anti-human IgG-HRP Santa Cruz Cat.sc-2453) was add into the plate and incubated for 1 hour at room temperature. After four times washing with TBS-T, TMB solution was added into the plate and incubated for 15 min at room temperature, then 1N sulfuric acid was added to stop the reaction. The absorbance was measured at 450 nm/570 nm.

[5] = target: T3, recombinant mouse latent TGF-beta 1 …; assay: SPR, Biacore 8K, 37 C, pH 7.4; antibody captured by anti-human Fc, latent TGF-beta 1 as analyte; 1:1 model
[6] = target: T4, recombinant human latent TGF-beta 1 …; assay: as above
[7] = target: T4, recombinant human latent TGF-beta 1 …; assay: SPR, Biacore T200, 37 C, pH 7.4; antibody captured by anti-human Fc, latent TGF-beta 1 injected at 3.125 to 50 nM
Experimental: as §2

[8] = target: T3, recombinant mouse latent TGF-beta 1 …; assay: SPR, Biacore T200, 37 C, pH 7.4; antibody captured by anti-human Fc, latent TGF-beta 1 at 3.125 to 50 nM as analyte; 1:1 model
Experimental: as §2

[9] = target: T4, recombinant human latent TGF-beta 1 …; assay: SPR, Biacore T200, 37 C, pH 7.4; antibody captured by anti-human Fc, latent TGF-beta 1 at 12.5 to 200 nM as analyte; 1:1 model; remark: listed apart in the source
Experimental: (§3) The affinities of anti-latent TGF-beta 1 antibodies binding to human latent TGF-beta 1 at pH 7.4 were determined at 37 degrees C. using Biacore T200 instrument (GE Healthcare). Anti-human Fc (GE Healthcare) was immobilized onto all flow cells of a CM4 sensor chip using an amine coupling kit (GE Healthcare). All antibodies and analytes were prepared in ACES pH 7.4 containing 20 mM ACES, 150 mM NaCl, 1.2 mM CaCl₂, 0.05% Tween 20, and 0.005% NaN₃. Each antibody was captured onto the sensor surface by anti-human Fc. Antibody capture levels were aimed at 300 resonance unit (RU). Recombinant human latent TGF-beta 1 was injected at a concentration of 12.5 to 200 nM prepared by two-fold serial dilution, followed by dissociation. Sensor surface was regenerated each cycle with 3M MgCl₂.

[10] = target: T4, recombinant human latent TGF-beta 1 …; assay: SPR, Biacore T200, 37 C, pH 7.4; antibody captured by anti-human Fc; 1:1 model; footnote: slow off rate <1E-05, KD cannot be uniquely determined
Experimental: as §3

T1 sequence (P04202 30-390): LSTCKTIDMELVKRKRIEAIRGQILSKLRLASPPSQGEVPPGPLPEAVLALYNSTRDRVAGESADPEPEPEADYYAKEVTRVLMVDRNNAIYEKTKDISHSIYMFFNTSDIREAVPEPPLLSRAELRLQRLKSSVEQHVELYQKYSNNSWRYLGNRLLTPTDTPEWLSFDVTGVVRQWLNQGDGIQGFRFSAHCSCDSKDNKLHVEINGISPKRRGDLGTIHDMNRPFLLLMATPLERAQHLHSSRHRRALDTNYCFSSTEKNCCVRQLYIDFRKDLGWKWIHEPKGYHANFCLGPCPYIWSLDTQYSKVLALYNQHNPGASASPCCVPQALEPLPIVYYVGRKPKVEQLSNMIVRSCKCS

B1: TBA865 (antibody, human IgG1, kappa, V domains shown)
VH: QSLEESGGRLVTPGGSLTLTCTVSGIDLSSYAMGWVRQAPGKGLEYIGIISSSGLTDYASWVNGRFTISKTSTTVDLKITSPTTEDTATYFCARIYDLWGPGTLVTVSS
VL: DIVMTQTPASVEAAVGGTLTIKCQASQSISDQLSWYQQKPGQPPKLLIYRASTLESGVPSRFKGSGSGTQFTLTISDLECADAATYYCQSYYYSYSSTYGNTFGGGTKVEIKR
- binding result [1]: no binding
- binding result [2]: no binding
- Kd [3]: 0.158 nM
- koff [3]: 5.37e-05 s⁻¹
- kon [3]: 341000 M⁻¹ s⁻¹
- Kd [4]: 0.16 nM
- koff [4]: 6.55e-05 s⁻¹
- kon [4]: 410000 M⁻¹ s⁻¹

B2: TBA873 (antibody, human IgG1, kappa, V domains shown)
VH: QSLEESGGRLVTPGGSLTLTCTVSGIDLSSYAMGWVRQAPGKGLEYIGIISNSGLTDYASWVNGRFTISKTSTTVDLKITSLTTEDTATYFCARIYDLWGPGTLVTVSS
VL: DIVMTQTPASVEAAVGGTVTIKCQASQSISNQLSWYQQKPGQPPKLLIYRASTLASGVSSRFKGSGSGTQFTLTISDLECAAAATYYCQSYYYSVSSTYGNTFGGGTKVEIKR
- binding result [1]: no binding
- binding result [2]: no binding
- Kd [3]: 0.276 nM
- koff [3]: 5.15e-05 s⁻¹
- kon [3]: 187000 M⁻¹ s⁻¹
- Kd [4]: 0.292 nM
- koff [4]: 6.72e-05 s⁻¹
- kon [4]: 230000 M⁻¹ s⁻¹

B3: TBA0946 (antibody, human IgG1, kappa, V domains shown)
VH: QSLEESGGRLVTPGTPLTLTCTTSGFSLNNYYMNWVRQAPGKGLEWIGLTDNDGTTYYANWAKGRFTVSKTSTTVDLKMTSPTTEDTATYFCVRDAGYSRNLWGPGTLVTVSS
VL: AYDMTQTPASVEVAVGGTVTIKCQASQSISSSLAWYQQKPGQPPKQLIYRASTLASGVSSRFKGSGSGTQFTLTISGVECADAATYYCQQTYSWSGLDNVFGGGTKVEIKR
notes: also called TBA0946bb-F1332m; TBA946
- binding result (mouse mature TGF-beta 1): no binding (tested: 10 µg/mL)
- Kd [5]: 0.0793 nM
- koff [5]: 7.66e-05 s⁻¹
- kon [5]: 966000 M⁻¹ s⁻¹

B4: TBA0947 (antibody, human IgG1, kappa, V domains shown)
VH: QSVEESGGRLVTPGTPLTLTCTVSGFSLSSYAMNWVRQAPGKGLEWIGYIYTSGTTYHANWARGRFTISKTSTTVDLKMTSLTTEDTATYFCARGTGISDYYYWVMDLWGPGTLVTVSS
VL: AFELTQTPSSVEAAVGGTVTIKCQASQSISTYLAWYQQRPGQPPKLLIYKASTLASGVPSRFKGSGSGTDFTLTISDLECADAATYFCQSYCDGDSVGFGGGTKVEIKR
notes: also called TBA0947gg-F1332m; TBA947
- binding result (mouse mature TGF-beta 1): no binding (tested: 10 µg/mL)
- Kd [5]: 0.0419 nM
- koff [5]: 1.07e-05 s⁻¹
- kon [5]: 256000 M⁻¹ s⁻¹
- Kd [6]: 7.65 nM
- koff [6]: 0.00224 s⁻¹
- kon [6]: 292000 M⁻¹ s⁻¹

B5: TBA1172 (antibody, human IgG1, kappa, V domains shown)
VH: QSVEESGGRLVTPGTPLTLTCTVSGFSLSNYAMGWVRQAPGKGLEWIGIISSGGVSYYASWARGRFTISKTSTTVDLKITSPTPEDTGTYFCARGQVPSSDTYYVPFNLWGPGTLVTVSS
VL: DIAMTQTPASVEAAVGGTVTIKCQASQSIGSDLAWYQQKPGQPPKLLIYRASTLASGVPLRFKGSGSGTQFTLTISDLECADAATYYCQTYYFTISSYGAFGGGTKVEIKR
notes: also called TBA1172aa-F1332m; TBS1172
- binding result (mouse mature TGF-beta 1): no binding (tested: 10 µg/mL)
- Kd [5]: 0.0919 nM
- koff [5]: 9.13e-05 s⁻¹
- kon [5]: 994000 M⁻¹ s⁻¹
- Kd [6]: 88 nM
- koff [6]: 0.0229 s⁻¹
- kon [6]: 261000 M⁻¹ s⁻¹

B6: TBS139 (antibody, mouse IgG1, kappa, V domains shown)
VH: QSLEESGGDLVKPGASLTLTCTASGFSFSSYWMSWVRQAPGKGLEYIGMISIIGTTYYASWAKGRFTISKTSSTTVTLQVTSLTAADTATYFCARGYVSNSNYWGLWGPGTLVTVSS
VL: AYDMTQTPASVEVAVGGTVTIKCQASQNIGSNLAWYQQKPGQPPKLLIYYASDLASGVPSRFKGSGSGTRYTLTISGVQCDDAATYYCQQYWSSSNVDNTFGGGTEVVVKR
- binding result [7]: no binding (tested: 50 nM)
- Kd [8]: 0.0225 nM
- koff [8]: 3.96e-05 s⁻¹
- kon [8]: 1.76e+06 M⁻¹ s⁻¹

B7: TBA1300 (antibody, human IgG1, kappa, V domains shown)
VH: QEQLKESGGGLVTPGGTLTLTCTVSGFSLSNYDMSWVRQAPGKGLEWIGAIYTAGTTSYASWAKGRFTISKTSTTVDLKITSPTTEDTATYFCARGGSSFFYYAAHNIWGPGTLVTVSS
VL: AYDMTQTPASVEAAVGGTVTIKCQASQSIGSNLAWYQQKPGQPPKLLIYDASKLPSGVPSRFKGSGSGTEFTLTISDLECDDAATYYCQQYYTTSDVDNTFGGGTKVEIKR
notes: also called TBA1300ff-F1332m
- Kd [9]: 0.0389 nM
- koff [9]: 2.31e-05 s⁻¹
- kon [9]: 593000 M⁻¹ s⁻¹

B8: TBA1314 (antibody, human IgG1, kappa, V domains shown)
VH: QSVEESGGRLVTPGTPLTLTCTVSGFSLSNYAMTWVRQAPGKGLEWIGVIYAGGNTYYANWVNGRFTISKTSTTVDLKITSPTTEDTATYFCARDVGSSSSGVYFNIWGPGTLVTVSS
VL: AYDMTQTPASVEVAVGGTVTIKCQASQSIGSRLAWYQQKPGQPPKLLIYDASTLASGVSSRFKGSGSGTEFTLTISGVECADAATYYCQQDYSYRHVDNIFGGGTKVEIKR
notes: also called TBA1314aa-F1332m
- kon [9]: 402000 M⁻¹ s⁻¹
- Kd [10]: ≤ 0.00738 nM
- koff [10]: < 1e-05 s⁻¹

B9: TBA1277 (antibody, human IgG1, kappa, V domains shown)
VH: QSVEESGGRLVTPGTPLTLTCTASGFSLSNYDMSWVRQAPGKGLEWIGNIHTADTTSYARWAKGRFTISKTSTTVDLKITSPTSEDTATYFCARGGSDFFYYEPYNIWGPGTLVTVSS
VL: AYDMTQTPASVEAAVGGTVTVRCQASESIGSRLAWYQQKVGQPPKLLIYDASTLASGVSSRFKGSGSGTEFTLTISDLECDDAATYYCQQYYTSNNVENTFGGGTKVEIKR
notes: also called TBA1277cc-F1332m
- Kd [9]: 0.0188 nM
- koff [9]: 1.63e-05 s⁻¹
- kon [9]: 867000 M⁻¹ s⁻¹
